Test results published in the DeepSol protein solubility set.

test: soluble on expression in E. coli; label from the status in PepcDB or PDB records

Row | Sequence | soluble on expression in E. coli
1 | ALPTIHVVTPTYSRPVQKAELTRMANTLLHVPNLHWLVVEDAPRRTPLTARLLRDTGLNYTHLHVETPRNYKLRGDARDPRIPRGTMQRNLALRWLRETFPRNSSQPGVVYFADDDNTYSLELFEEMRSTRRVSVWPVAFVGGLRYEAPRVNGAGKVVRWKTVFDPHRPFAIDMAGFAVNLRLILQRSQAYFKLRGVKGGYQESSLLRELVTLNDLEPKAANCTKILVWHTRTEKPVLVNEGKKGFTDPSVEI | soluble
2 | MGSDKIHHHHHHMRILQIGKFYPIRGGIEKVMYDITMGLSQRQVYCDMLCASAEKQKPENLLLNDYARILCVSTWKKVAATMLSPAMIFRLRKINKEYDIIHIHHPDPMACLALFLSGYKGPVVLHWHSDILKQKMLLKLYSPLQNWLLRRAKVIVGTTPVYVQESPFLENIQRKVISVPIGIDEMKPVPGRVAQIKERYAGKKIIFSLGRLVEYKGYEYLIKASQKLNDDYIILIGGKGPLQEYLQSLIDELGVRKKVKLLGFIDDKDLPDYFGACDLFCLSSIWKTEAFGIVQIEAMSCGKPVIAMNIPESGVSWVNINRFSGINVKPEDADALAEAITAVLTDECLYEELARGARRRYETMFTKELMTELCLNLYSGVLDSSETDYPANKKE | not soluble
3 | MAHHHHHHMLTRSERGMCNGRVPTKGLVGFLSGSSTGTEWRDEYLGVNAIVHGPAEKRIGVPNGVTFQGSWAEWPVGDMGQTVPYYFANNKFTLVATVSIHEVPKEDSSPIPLIGVRMNDTSSTVLFALSYTHDRKWLAIPEDAGGVEDLFGWEPHTTYQAVLRMTLDEWTAFVDQREIDRKSYNENLFDSHRISHFYIGGDSNDQSATDGHVTVTNVMLYNEDLYNNELYEPNASKVNIPSLGVEEHPTGQVTSTEVSVVHESKSEEITASCAELNEDDTDKQEEETASMIRCLQRPLPRLTRDHLFLSLPSQRRAQGMTVQRTMSSFTRAKRPSKPRRMKRINRCNGVQTCSHKTHSQRN | not soluble
4 | MGHHHHHHEFMLKNDDFVIAKNQLGNIVPNSVGVIRAVNGKSAMVLFIGLNELKRVDFSELEAIDIYRTGKGYDKKICNICHILKNTDGFEINQTDAKGRKTTRPSCRECRKNIDGVKLSSTEKKKMDEIAPPKGSVFTCPICEKRSIVGVTANLVHDHNHDTGWGREWICDSCNTGLGRFKDNPKFLEKVIEYLKKYEK | soluble
5 | MKPLLLSRRTHQKPGNYASGRGFPSSTRYIEDVQWLLKEFEPFVRVSADLPFVKARDIALIRSELEKKKPASLEVCLLEHHHHHH | not soluble
6 | MGSDKIHHHHHHMERPILGKYIIKGKIILETGLRIGGQELGVNIGGIDNPVIRNPLTGEPYIPGSSVKGKMRSLMERLLNLDISGNKVRRHECEERECKVCRVFGSTSKEGNNIPSRLLVRDAFLTEDSKTKLLSMETDLPYTEWKTENALDRVTCKADPRSFERIPAGAEFEFEIIYTAENEKHIKEDLENIATALELLEDDYLGGNGSRGYGKVKFSIEKVIFKSADYYKGEGTPVEKEVKGGVEGFKKAIPEIVKG | not soluble
7 | KPYQVVGEKQEILNLIDNTTLDVSFTLPVSYAESVSLSALKNAEMWVTMDSEPSKRIPGKFKEISTQPNIDTNSYEAIVTITRPTDRNLLTGMTGQVHIAKQNKSNAMTLPTSAWVNKQEKQGEVWVMDSSTQQVSKVTLSLNESGAIESGLDNNDYVVIAGVERLVEGQVVKAWIREEGI | not soluble
8 | MRLEYRLNDETKGYPALWNYANISNSEIIARMTCEYFIKEKNTYVVTATSVDPDGTAVIYIQKEVFANDPSDPTYSYIGFEIRELSETSSNIVDSQDVWNYEEILPSLHSDIIYIQRDGMSMEFSLDSREIDEDRKCYIYYGNFTGESR | soluble
9 | MKENFQIHIWLGLLLCLLGMSCSDDTPAKGDDPGNGNTELEVNEWIESVMRSDYLWNNDIPAQNKLDFSADPQTFFRSMLSLKDGKTRNGKHLYYYSYMEKNKDYKARTSIDADDTYGMEFTLFNVVNDSNQPLGYYYARILYVLPNSPASSAGLERGDWIVGVKGRNNINSDNYGILLNGDRTQWLVKRGDTEVRTIDIEASRAVEDNPLFYHNVYTRGDKKIGYLVYNHFTSGPNGYSDRTYDEEMKKIFAGFQAQGVNEFVLDLRYNGGGYENSANMLAGLLIPEASRKKVFAVFSDNKGQSYSNDFCVETKGTAGYLKLNSNRIYILTSQSTASSSEVVINSLNPFMDVILIGELTEGKNVGMEMQKNDKYEWIYWPITLRVTNAVNDDYSAGFKPDIEWNEYDLTQNPTDALLPLGDPDEFMLGKAISLITGINRSARSMNTLGIFSKCL | not soluble
10 | MSLTERVLVTGGGGFVACHLIQQLLASGNVVNTTVRNLTNRAKVLPLLTLQKQHPGKLYLFEADLLVDGAFDAPMHDCTVVHHVASPFLLPEKIKDGRREMLEPALLGTRNVLSSVDKTPSVLRVVMTSTVGAIFGDYIDVLHMKNKTLTEDYFNTSSTLETNPYHYAKVEAEKEAWRICEKQTRWSLVTINPGMILGPSLTPASDSGSLFLLDEMFRGYFFYGMPDLSLTTVDVRDVAAAHIIAANKVDAQGRYILAEQHMISFVEIAGIVRRLHRRPWLLPRYRIPDAIVRLIGPFFGLTQDYLSKHLGIRFVVDNQRSLNDLGIKYRSITETLTDHYRCWDMQRQLNEGHHHHHH | soluble
11 | SDNGDWGHRLTHPVTLNVGGHLYTTSISTLQRYPDSMLGAMFRGDFPTTRDAQGNYFIDRDGTLFRYILNFLRTSELTLPVDFTELDLLRKEADFYQIEPLIQCLNDPKPLYPLDTFEQVVELSSTRKLSKYSNPVAVIITQLTITTKVHSLLEGISNNFTKWNKHMMDTRDCQVSFTFGPCDYHQEVSLRVHLMDYITKQGFTIRNTRVHHMSERANENTVEHHWTFCRLAYKVED | soluble
12 | MGSDKIHHHHHHMSIICLALAGCAVEKTEVRTPTFDEQLRPAPPSYANGSIWQASTTGLAVDHKARSRGDIITVLIVEQASASKEATTDTERKAEVSASVPYLMGLEKSSTLFSKLTNANPNNLLGASTNSKYEGSGATTRKENLLATMTAKITDVLPNGNFLIEGRRNVKVNNEDQILVLQGTIRPRDVSPDNTISSTMIADARISYTGNGVISDRQRPGWLMNILDYIWPF | not soluble
13 | MESFQTIVDNEVLMESCGIQQESKIKNFPWAVSFTVDGVNRLGGSIISPYHIITAAHGFITTIGSRGNLCENKNWKKPNSSIYRSIKFLRDTRKVAYGGTCIRGHTDKYPNDPRCKKSDVIHNKVRAVLVDGEFASSNCLKGHDWAIVEVEKRIHFSENVRPICLPRPNMYYTKSLAVPGWGRIFNESGPLIHEIPMRIDRDCKRPWSDRLPADADDFICATSMNVSNYSAPRTCHGDSGGGLEYRDDNYGRAFLIAITSFGTRGCPSNMLARFTRVDMYLNLICNYTGVCY | not soluble
14 | MAQNNENALPDITKSITLEAPIQKVWETVSTSEGIAKWFMPNDFQLKEGQEFHLQSPFGPSPCKVLAVQAPTELSFEWDTEGWVVTFQLEDLGEKTGFTLIHSGWKEPNEVIGKANEKSSVVRGKMDGGWTGIVNERLRKAVEELEHHHHHH | soluble
15 | MVVGVAGYYGFRNAGDEAILEAIARELKARGHEVVALSGDPKRTREDHGLRAYHRLNPLALLRADLWLLGGGGLLQDATSALSLTYYLSVLRLARLFRKRVVVFNQSLGPLSPWGERRVRKALQGVPVILRDQDSLEYARRLGIPAALGADPALLLPPPPVPREEDLVLVIPRAGVREEALTTLYVAANHLVHEGKQVLVLLLQPGYDDEVAEVFRLHRIERTSDPRRLLYLAAQAGYVISMRLHGLILAAAAGTPFAALSYDPKVAAFAKETGAYYQELPGEPIKLYKAALYGRFPDWEKVARLKERARQSFDLALGEGVPIKGSGRG | soluble
16 | MGSDKIHHHHHHMKFYNRENELAELQRIQELSFEENSRLTVVTGRRRIGKTSLIMRAFEKTPTIYLFVGRKNEASLCREFITLVSQALDIYVPEEISTFKSLFRYIMEVATRQSFNLVIDEFQEFYNINKSIYSDIQDIWDQYRQKTHMNFVVSGSIYSLMEKIFHNEKEPLFGRADNIIKLSAFSLNVLKKIIKDYHPQYTNDDLLALYSFSGGVPKYVELFCDNRVLTVDGMIDFMVRDNSPFTDEGKNLLIEEFGKNYGTYFSILSAISGGYNTQTEIEALLGEKSLGGYLKRLIEDYNIVVRQRPVFSKEGSQTVRYGICDNFIHFWFNYFDRNRSLIEIKNFIGLRKLIKADYPTYSGKILEQYFKQKYAESYEFRLIGSWWEPKGNQNEIDIVAIYLDNKSAIVAEVKRQKKNFKPELFQKKVEHLENKVLAKYQINTVCLSLEDM | not soluble
17 | MAHHHHHHMLVRRSLSKKRSVIRGRNSRDLRVSSYIRVCTCTYVRNLCCRRLAYYDVCGESWSHARPFSPNSAMDYSLSVFRVLCPFVKTFFLFTLPCLTEGEGRVKSLIRWWEKKTCAEILMSSHAYLGLLRFICDLYTSFKGYVSRWHCPARRTAVLSCLSAAIGADGGVGPWLLLFVRAAVLRVLSLRQHPQTTQGEGRLARLVQPNQSGGHERHQQ | not soluble
18 | MSLDMKTTHTSLPFAGHTLHFVEFDPASFREQDLLWLPHYAQLQHAGRKRKTEHLAGRIAAIYALREYGYKCVPAIGELRQPVWPAGVYGSISHCGTTALAVVSRQPIGIDIEEIFSAQTARELTDNIITPAEHKRLADCGLAFPLALTLAFSAKESAFKASEIQTDADFLDYQIISRNKQQVIIHRENEMFAVHWQIKEKIVITLCQHDEGHHHHHH | soluble
19 | MGHHHHHHSHMSETTQTSQSLYQALWNSADVLRSKMDANDYKSYLLGMVFYKYLSDKMLFFVAETMEEETESLDEALAVYRKYYEDEETHEDLLAVITDEMSYAIHPDLTFTALVERVNDGSFQLEDLAQGFRDIEQSDELYENLFEDIDLYSKKLGATPQKQNQTVAAVMKELAVLDVAGHAGDMLGDAYEYLIGQFATDSGKKAGEFYTPQPVAKLMTQIAFLGREDKQGFTLYDATMGSGSLLLNAKRYSRQPQTVVYFGQELNTSTYNLARMNMILHGVPIENQFLHNADTLDEDWPTQEPTNFDGVLMNPPYSAKWSASSGFMDDPRFSPFGKLAPKSKADFAFLLHGYYHLKQDNGVMAIVLPHGVLFRGNAEGTIRKALLEEGAIDTVIGLPANIFFNTSIPTTVIILKKNRTNRDVYFIDASKEFDKGKNQNIMTDAHIEKILNAYKSREDIDKFAHLASFEEIVENDYNLNIPRYVDTFEEEEVEPLTEIVAKINQTNATIESQTASLLDMLGQLHGTTPEADEELKAFVKAFKG | not soluble
20 | MGSDKIHHHHHHMIVLIGGEKGGSGKSCLAQNIAVFLTTECGASVIMVDCDPQRTTSDWIQARNNNPKLASINCVQLYGKIRNDLLSLEQHYDFVIVDCGGQDNLALRATMSVASHILMPLRPKRRDLKTVSHMDDIVATCKMINPKLHASFVITQCPNLPNQANRILEAKEICKTYDINVLDSITYSRNIYDDSEESGLSVLEIEPKGKAAAEIRAIACEMFQVDCAASLTALLKPSTSIAGHHSQINQNQSNHLRGQYGTQRPQEKRYAI | not soluble
21 | MGSDKIHHHHHHMTKEQNSTENLDFQSPSDDTNLEGDFTADIVALAAKVEVQIQKIAERQRQISAKVQIPQPVEKIWKVLTDYEALPDFLPNLAKSRLIEHPNGGIRLEQVGSQRLLNFNFSARVVLDLEECFPREINFRMVEGDFKGFSGSWCLEPYSLGEYIGTNLCYTIQVWPKLTMPVGIIENRLSKDLRLNLVAIHQRVEELANKQPYI | not soluble
22 | MSANLVTPKWGYIGKMPAKGDFVKDGISPEFANRWHDWQQAVIAVSKEQLGDTWNDYFLTAPVWHFALDVSYMDDATYIGSMIPSVDACGRYFFFTVVRAVKGKAAQYWAQSGWTEDSQTLALSVLDDEFVFDVWHRSMQEKCELVSEVSICNEEMALLYQSPISTVFSFSTEAKQNTLLNHLIESQQRKPCFWWTEGSTHIESCMFVSTGLPSIGQFSAMLDGRWQMWSW | not soluble
